Reference: US20250313626A1 (HARBOUR BIOMED SHANGHAI, published 2025)
Numbering of substitutions follows the chain as printed.

T1: cell surface glycoprotein CD200 receptor 2 isoform 1 precursor CD200R1L recombinant protein (Sino … (human, UniProt Q6Q8B3 24-239))
T1 construct: Bought protein; also called hCD200R1L; recombinant human CD200R1L protein
T1 sequence: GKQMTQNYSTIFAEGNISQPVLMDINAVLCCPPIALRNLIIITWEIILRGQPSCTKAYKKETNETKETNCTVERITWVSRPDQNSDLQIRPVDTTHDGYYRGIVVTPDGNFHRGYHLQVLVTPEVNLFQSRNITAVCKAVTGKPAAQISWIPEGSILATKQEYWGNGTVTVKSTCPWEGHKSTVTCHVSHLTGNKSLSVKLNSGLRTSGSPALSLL

T2: human CD200R1 isoform a on CHOK1 cells (CHOK1/hCD200R1a) (human, UniProt Q8TD46 25-348)
T2 construct: also called CHOK1/CD200R1a
T2 sequence: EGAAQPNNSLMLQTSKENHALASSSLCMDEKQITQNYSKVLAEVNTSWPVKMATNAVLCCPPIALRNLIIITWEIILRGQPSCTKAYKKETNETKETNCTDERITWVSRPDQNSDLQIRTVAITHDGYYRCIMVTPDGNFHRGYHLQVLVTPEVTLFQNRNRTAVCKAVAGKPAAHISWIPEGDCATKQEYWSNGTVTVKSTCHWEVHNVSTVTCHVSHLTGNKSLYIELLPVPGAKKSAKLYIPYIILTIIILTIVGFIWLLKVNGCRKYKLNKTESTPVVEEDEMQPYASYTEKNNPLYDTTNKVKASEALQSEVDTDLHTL

T3: Cynomolgus macaques CD200R1 isoform a on CHOK1 cells (CHOK1/cynoCD200R1a) (Cynomolgus macaques)
T3 chain: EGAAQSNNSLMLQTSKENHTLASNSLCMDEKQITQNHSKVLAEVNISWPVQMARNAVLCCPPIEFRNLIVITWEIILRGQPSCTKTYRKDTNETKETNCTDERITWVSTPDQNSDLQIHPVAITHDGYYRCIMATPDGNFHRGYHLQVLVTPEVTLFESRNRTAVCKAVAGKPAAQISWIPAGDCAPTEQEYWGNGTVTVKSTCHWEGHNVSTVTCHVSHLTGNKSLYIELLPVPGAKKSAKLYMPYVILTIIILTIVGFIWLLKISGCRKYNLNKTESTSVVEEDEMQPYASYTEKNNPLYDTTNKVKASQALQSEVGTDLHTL

B1: PR007223 (antibody, human IgG1, kappa)
heavy: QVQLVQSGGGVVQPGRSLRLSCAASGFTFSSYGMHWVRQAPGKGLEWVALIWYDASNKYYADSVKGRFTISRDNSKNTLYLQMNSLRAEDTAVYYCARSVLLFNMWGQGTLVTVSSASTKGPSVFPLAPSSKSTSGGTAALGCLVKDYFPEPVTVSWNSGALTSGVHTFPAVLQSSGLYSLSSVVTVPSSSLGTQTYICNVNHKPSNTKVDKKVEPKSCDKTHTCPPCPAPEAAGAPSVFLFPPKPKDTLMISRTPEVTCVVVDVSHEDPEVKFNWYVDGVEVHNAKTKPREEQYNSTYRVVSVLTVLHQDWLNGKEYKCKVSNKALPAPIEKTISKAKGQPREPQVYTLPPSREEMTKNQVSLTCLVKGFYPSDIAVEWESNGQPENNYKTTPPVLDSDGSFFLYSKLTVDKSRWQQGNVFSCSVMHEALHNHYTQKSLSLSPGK
light: DIQLTQSPPSLSASVGDRVTITCRASQSISSYLNWFQQKAGKAPKLLISATSNLQSGVPSRFSGSGSGTDFTLTISSLQPEDLATYYCQQTYSSPYTFGQGTKVEIKRTVAAPSVFIFPPSDEQLKSGTASVVCLLNNFYPREAKVQWKVDNALQSGNSQESVTEQDSKDSTYSLSSTLTLSKADYEKHKVYACEVTHQGLSSPVTKSFNRGEC
notes: PTM variant of PR006895 (human IgG1)
B2: PR007221 (antibody, human IgG1, kappa)
heavy: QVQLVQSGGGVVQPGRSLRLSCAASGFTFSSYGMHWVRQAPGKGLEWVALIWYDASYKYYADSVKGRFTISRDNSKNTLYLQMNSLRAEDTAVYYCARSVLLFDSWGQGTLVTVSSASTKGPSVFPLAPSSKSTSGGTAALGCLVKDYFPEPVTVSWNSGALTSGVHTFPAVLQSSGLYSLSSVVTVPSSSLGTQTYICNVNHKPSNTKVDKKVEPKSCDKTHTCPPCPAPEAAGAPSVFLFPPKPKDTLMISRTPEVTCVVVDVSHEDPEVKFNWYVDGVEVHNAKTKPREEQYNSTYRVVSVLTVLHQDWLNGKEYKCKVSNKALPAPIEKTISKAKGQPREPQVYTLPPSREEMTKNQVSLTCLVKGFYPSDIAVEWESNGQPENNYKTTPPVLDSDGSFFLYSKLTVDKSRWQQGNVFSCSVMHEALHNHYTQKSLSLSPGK
light: B1 light with Y92L
notes: as for B1
B3: PR007973 (antibody, human IgG1, kappa, V domains shown)
VH: QVQLVESGGGVVQPGRSLRLSCAASGFTFSSYGFHWVRQAPGKGLEWLGIIWSDASNKYYADSVKGRFTISRDNSKNTLYLQMNSLRAEDTAVYYCARDRIVGEGFDYWGQGTLVTVSS
VL: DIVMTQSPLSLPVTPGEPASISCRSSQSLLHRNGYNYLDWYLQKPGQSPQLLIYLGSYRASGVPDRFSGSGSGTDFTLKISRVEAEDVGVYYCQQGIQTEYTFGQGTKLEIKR
notes: PTM variant of PR006839 (human IgG1)
B4: PR006480 (antibody, human IgG1, kappa, L234A L235A)
heavy: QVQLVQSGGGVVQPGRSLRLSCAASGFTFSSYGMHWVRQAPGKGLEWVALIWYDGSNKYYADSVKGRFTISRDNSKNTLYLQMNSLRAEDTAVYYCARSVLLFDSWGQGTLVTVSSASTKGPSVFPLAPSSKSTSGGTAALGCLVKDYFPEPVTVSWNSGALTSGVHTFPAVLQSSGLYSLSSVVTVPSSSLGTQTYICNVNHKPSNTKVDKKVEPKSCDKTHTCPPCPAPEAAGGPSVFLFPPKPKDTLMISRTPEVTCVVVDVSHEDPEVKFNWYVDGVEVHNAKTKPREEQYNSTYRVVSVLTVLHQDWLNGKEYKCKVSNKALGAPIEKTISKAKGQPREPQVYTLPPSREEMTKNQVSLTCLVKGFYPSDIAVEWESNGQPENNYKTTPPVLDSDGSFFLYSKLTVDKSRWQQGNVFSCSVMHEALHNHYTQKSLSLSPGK
light: B1 light with L4M, T91S
notes: also called PR6480
B5: PR002906 (antibody, V domains shown)
VH: QVQLQESGPGLVKPSETLSLTCTVSGYTITSGYDWSWIRQPPGKGLEWIGYINYGGSTNYKPSLGSRVTISVDTSKNQFSLKLSSVTAADTAVYYCARYNEYKSYIYDWYFDFWGQGTLVTVSS
VL: DIQMTQSPSSLSASVGDRVTITCKASKNIRSYLAWYQQKPGKAPKLLIYSGSTLHSGVPSRFSGSGSGTDFTLTISSLQPEDFATYYCQQHHEYPLTFGQGTKVEIKR
notes: also called recombinant IgG1 antibody of huDX182
B6: PR005474 (antibody, human IgG1, kappa, L234A L235A, V domains shown)
VH: QVQLVESGGGVVQPGRSLRLSCAASAFTFSSYGMHWVRQAPGKGLEWVALIWNDGSNKFYADSVKGRFTISRDNSKNTLFLQMNSLRAEDTAVYYCARDRILGAGFDYWGQGTLVTVSS
VL: not shown
B7: PR005509 (antibody, human IgG1, kappa, L234A L235A, V domains shown)
VH: B3 VH with I50L, A55G, E104A
VL: not shown

The binders below were run against T1, cell surface glycoprotein CD200 … (assay: ELISA on plate-coated recombinant human CD200R1L).
Description: In specific, the cell surface glycoprotein CD200 receptor 2 isoform 1 precursor CD200R1L recombinant protein (Sino Biologicals, 11620-H08H, SEQ ID NO:174) were diluted with PBS to 1 μg/mL, and added to a 96-well plate (Corning, #9018) at 100 μl per well, and incubated overnight at 4° C. After the liquid was discarded, the plate was washed 3 times with PBST buffer (pH 7.4, containing 0.05% tween-20), 250 μl 2% BSA blocking solution was added into the plate and incubated at 37° C. for 1 hour. The blocking solution was discarded and the plate was washed 3 times with PBST buffer (pH 7.4, containing 0.05% Tween-20). The anti-CD200R1 antibodies were diluted and added at 100 µl/well, incubated at 37° C. for 1 hour, with isotype antibody as a control. After the plate was washed 3 times with PBST buffer (pH 7.4, containing 0.05% Tween-20), goat anti-human HRP secondary antibody (Invitrogen, #A18805) was diluted 5000 times, added into the plate and incubated for 1 hour at 37° C. in the dark. After the plate was washed with PBST buffer (pH 7.4, containing 0.05% tween-20) for 3 times, 100p/well of TMB (Biopanda, #TMB-S-003) was add and the plate was placed in the dark at room temperature for about 30 minutes; stop solution (BBI life sciences, #E661006-0200) was added at 50p/well to each well to terminate the reaction, and the absorbance (OD450) at 450 nm was measured in a microplate reader (PerkinElemer, #Enspire).
B1: no binding (tested: 100 nM). B2: no binding (tested: 100 nM). B3: no binding (tested: 100 nM).

These binders were tested against T2, human CD200R1 isoform a on CHOK1 cells … (assay: flow cytometry, CHOK1/hCD200R1a cells (FITC-Mean); table beside the curves).
Description: (§1) This example is intended to investigate the in vitro binding activity of human anti-CD200R1 monoclonal antibodies to human/Cynomolgus macaques CD200R1a expressed on the surface of cells. The anti-CD200R1 antibodies were produced as described in Example 3.4 and the binding experiments at the cell level were performed using CHOK1/hCD200R1a and CHOK1-cynoCD200R1a.
(§2) Briefly, CHOK1/hCD200R1a cells and CHOK1-cynoCD200R1a cells were digested, and collected, and then were resuspended in PBS containing 2% BSA, respectively. The cell density was adjusted to 1×10⁶ cells/mL. The cells were seeded in a 96-well V-bottom plate (Corning, #3894) at 100 μL/well, followed by the addition of test antibodies and reference antibodies in a series diluted concentration, each at 100 μL/well. The cells were incubated away from light at 4° C. for 1 h. Thereafter, the cells in each well were rinsed twice with 100 μL of pre-cooled PBS containing 2% BSA, and centrifuged at 500 g at 4° C. for 5 min, and then the supernatant was discarded. 100 μL of fluorescent secondary antibody (Alexa Fluor 488-conjugated AffiniPure Goat Anti-Human IgG, Fcγ Fragment Specific, Jackson, #109-545-098, diluted in a 1:1000 ratio) was added in each well, and the plate was incubated away from light at 4° C. for 1 h. The cells in each well were rinsed twice with 100 μL of pre-cooled PBS containing 2% BSA, and centrifuged at 500 g at 4° C. for 5 min, and then the supernatant was discarded. Finally, the cells in each well were resuspended in 200 μL of pre-cooled PBS containing 2% BSA, and the fluorescence signal values were read using a BD CantoII flow cytometer.
For B4, the “MFI(Max)” value was 8890. B1 was tested, and the “MFI(Max)” value was 9890. In the case of B2, the “MFI(Max)” value is reported as 11100. For B5, the “MFI(Max)” value was 11100.

Molecular target: T2, human CD200R1 isoform a on CHOK1 cells …
Assay: as above
Remark: another data set of the same source
Description: as §1, §2
With B5 the “MFI(Max)” value was 13900. With B3 the “MFI(Max)” value was 19200.

The binders below were run against T2, human CD200R1 isoform a on CHOK1 cells … (assay: flow cytometry, CHOK1/hCD200R1a cells; table beside the curves, head without unit, x axis Log [Ab] (nM)).
Description: as §1, §2
For B4, the EC50 was 33 nM. With B5 the EC50 was 14.8 nM. B6 showed an EC50 of 9.36 nM.

Molecular target: T3, Cynomolgus macaques CD200R1 isoform a …
Assay: flow cytometry, CHOK1/cynoCD200R1a cells; table beside the curves, head without unit, x axis Log [Ab] (nM)
Description: as §1
as §2, with “100 μL of fluorescent secondary antibody (Alexa Fluor 488-conjugated AffiniPure Goat Anti-Human IgG, Fcγ Fragment Specific, Jackson, #109-545-098, diluted in a 1:1000 ratio) was added in each well, and the plate was incubated away from light at 4° C. for 1 h. The cells in each well were rinsed twice with 100 μL of pre-cooled PBS containing 2% BSA, and centrifuged at 500 g at 4° C. for 5 min, and then the supernatant was discarded.” left out
With B5 the EC50 was 15.5 nM. With B7 the EC50 was 4.2 nM.

The binders below were run against T2, human CD200R1 isoform a on CHOK1 cells … (assay: flow cytometry, CHOK1/hCD200R1a cells (FITC-Mean); table beside the curves, head without unit, x axis Log [Ab] (nM)).
B4 gave an EC50 of 0.124 nM. B1 showed an EC50 of 0.133 nM. Work on B2 yielded an EC50 of 0.172 nM. B5 showed an EC50 of 0.292 nM.
